Patent US20220259318A1 (Hoffmann-La Roche, published 2022)
Where a chain is given by its changes, count along the chain named. Values joined by “and” are separate entries in the source; they are usually repeats but may differ in a detail not shown here. Equal entries are not always repeated.

B1: 10B10-TCB (bispecific antibody, human IgG1, kappa, L234A L235A)
light 1: DIQLTQSPHSLSASLGETVSIECLASEGISNYLAWFHQKPGKSPQLLIYYASSLQDGVPSRFSGSGSGTQYSLKISNMQPEDEGVYYCQQGYKYPLTFGSGTKLEIKRTVAAPSVFIFPPSDRKLKSGTASVVCLLNNFYPREAKVQWKVDNALQSGNSQESVTEQDSKDSTYSLSSTLTLSKADYEKHKVYACEVTHQGLSSPVTKSFNRGEC
light 2: EVQLLESGGGLVQPGGSLRLSCAASGFTFSTYAMNWVRQAPGKGLEWVSRIRSKYNNYATYYADSVKGRFTISRDDSKNTLYLQMNSLRAEDTAVYYCVRHGNFGNSYVSWFAYWGQGTLVTVSSASVAAPSVFIFPPSDEQLKSGTASVVCLLNNFYPREAKVQWKVDNALQSGNSQESVTEQDSKDSTYSLSSTLTLSKADYEKHKVYACEVTHQGLSSPVTKSFNRGEC
heavy 1: EVQLVESGGGLVQPGRSMKLSCAASGFTFTNFYMAWVRQAPTKALEWVASINTGGGYTYYRDSVKGRFTVSRDNTRSTLYLQMDSLRSEETATYYCARHLTYYGRYYYFDYWGQGVMVTVSSASTKGPSVFPLAPSSKSTSGGTAALGCLVEDYFPEPVTVSWNSGALTSGVHTFPAVLQSSGLYSLSSVVTVPSSSLGTQTYICNVNHKPSNTKVDEKVEPKSCDKTHTCPPCPAPEAAGGPSVFLFPPKPKDTLMISRTPEVTCVVVDVSHEDPEVKFNWYVDGVEVHNAKTKPREEQYNSTYRVVSVLTVLHQDWLNGKEYKCKVSNKALGAPIEKTISKAKGQPREPQVCTLPPSRDELTKNQVSLSCAVKGFYPSDIAVEWESNGQPENNYKTTPPVLDSDGSFFLVSKLTVDKSRWQQGNVFSCSVMHEALHNHYTQKSLSLSPGK
heavy 2: not shown
B2: P1AE5709 (antibody, V domains shown)
VH: EVQLLESGGGLVQPGGSLRLSCAASGFTFSKYAMAWVRQAPGKGLEWVASISTGGVNTYYRDSVKARFTISRDNSKNTLYLQMNSLRAEDTAVYYCATHTGDYFDYWGQGTMVTVSS
VL: EIVLTQSPGTLSLSPGERATLSCRASQSVSISGINLMNWYQQKPGQQPRLLIYHASILASGIPDRFSGSGSGTDFTLTISRLEPEDFAVYYCQQTRESPLTFGQGTRLEIK
notes: Humanized 5E11 IgG; PGLALA Fc implied by the CAR-J assay; also called 5E11_VH1a + 5E11_VL2a
B3: P1AE5707 (antibody, V domains shown)
VH: B2 VH
VL: DIVMTQSPDSLAVSLGERATINCRASQSVSISGINLMNWYQQKPGQQPKLLIYHASILASGVPDRFSGSGSGTDFTLTISSLQAEDVAVYYCQQTRESPLTFGQGTRLEIK
notes: Humanized 5E11 IgG; PGLALA Fc implied by the CAR-J assay; also called 5E11_VH1a + 5E11_VL1a
B4: P1AE5722 (antibody, V domains shown)
VH: B2 VH with R61A, A66G
VL: B2 VL
notes: Humanized 5E11 IgG; PGLALA Fc implied by the CAR-J assay; also called 5E11_VH1c + 5E11_VL2a
B5: P1AE5708 (antibody, V domains shown)
VH: B2 VH
VL: B3 VL with R24K, A25S
notes: Humanized 5E11 IgG; PGLALA Fc implied by the CAR-J assay; also called 5E11_VH1a + 5E11_VL1c
B6: P1AE5713 (antibody, V domains shown)
VH: B2 VH
VL: DIQMTQSPSSLSASVGDRVTITCRASQSVSISGINLMNWYQQKPGQQPKLLIYHASILASGVPSRFSGSGSGTDFTLTISSLQPEDFATYYCQQTRESPLTFGQGTRLEIK
notes: Humanized 5E11 IgG; PGLALA Fc implied by the CAR-J assay; also called 5E11_VH1a + 5E11_VL3b
B7: P1AE5710 (antibody, V domains shown)
VH: B2 VH
VL: B2 VL with R49K
notes: Humanized 5E11 IgG; PGLALA Fc implied by the CAR-J assay; also called 5E11_VH1a + 5E11_VL2b
B8: P1AE5729 (antibody, V domains shown)
VH: B2 VH with V2L, R61A, A66G, S75A
VL: B2 VL with R49K
notes: Humanized 5E11 IgG; PGLALA Fc implied by the CAR-J assay; also called 5E11_VH1d + 5E11_VL2b
B9: P1AE5716 (antibody, V domains shown)
VH: B2 VH with V2L, S75A
VL: B2 VL
notes: Humanized 5E11 IgG; PGLALA Fc implied by the CAR-J assay; also called 5E11_VH1b + 5E11_VL2a
B10: P1AE5717 (antibody, V domains shown)
VH: B2 VH with V2L, S75A
VL: B2 VL with R49K
notes: Humanized 5E11 IgG; PGLALA Fc implied by the CAR-J assay; also called 5E11_VH1b + 5E11_VL2b
B11: P1AE5762 (antibody, V domains shown)
VH: EVQLVESGGGLVQPGGSLRLSCAASGFSFSNYGMAWVRQAPGKGLEWVASISTGGGNTYYADSVKGRFTISRDNAKNTLYLQMNSLRAEDTAVYYCTRHDRGGLYWGQGTMVTVSS
VL: DIVMTQSPLSLPVTPGEPASISCRSSKSLLHSNGITYVYWYLQKPGQSPQLLIYRMSNRASGVPDRFSGSGSGTDFTLKISRVEAEDVGVYHCGQLLENPYTFGQGTKLEIK
notes: Humanized 5F11 IgG; PGLALA Fc implied by the CAR-J assay; also called 5F11_VH2d + 5F11_VL2a
B12: P1AE5743 (antibody, V domains shown)
VH: B11 VH with L11V, G16R, A61R
VL: EIVLTQSPGTLSLSPGERATLSCRASKSLLHSNGITYVYWYQQKPGQAPRLLIYRMSNLASGIPDRFSGSGSGTDFTLTISRLEPEDFAVYHCGQLLENPYTFGQGTKLEIK
notes: Humanized 5F11 IgG; PGLALA Fc implied by the CAR-J assay; also called 5F11_VH1b + 5F11_VL2c
B13: P1AE5742 (antibody, V domains shown)
VH: B11 VH with L11V, G16R, A61R
VL: DIVMTQSPDSLAVSLGERATINCKSSKSLLHSNGITYVYWYQQKPGQPPKLLIYRMSNLASGVPDRFSGSGSGTDFTLTISSLQAEDVAVYHCGQLLENPYTFGQGTKLEIK
notes: Humanized 5F11 IgG; PGLALA Fc implied by the CAR-J assay; also called 5F11_VH1b + 5F11_VL2b
B14: P1AE5747 (antibody, V domains shown)
VH: B11 VH with E1Q, L11V, G16R, A75S
VL: B13 VL
notes: Humanized 5F11 IgG; PGLALA Fc implied by the CAR-J assay; also called 5F11_VH1c + 5F11_VL2b
B15: P1AE5753 (antibody, V domains shown)
VH: B11 VH with L11V, G16R
VL: B13 VL
notes: Humanized 5F11 IgG; PGLALA Fc implied by the CAR-J assay; also called 5F11_VH1d + 5F11_VL2b
B16: P1AE5754 (antibody, V domains shown)
VH: B11 VH with L11V, G16R
VL: B12 VL
notes: Humanized 5F11 IgG; PGLALA Fc implied by the CAR-J assay; also called 5F11_VH1d + 5F11_VL2c
B17: P1AE5749 (antibody, V domains shown)
VH: B11 VH with E1Q, L11V, G16R, A75S
VL: B12 VL
notes: Humanized 5F11 IgG; PGLALA Fc implied by the CAR-J assay; also called 5F11_VH1c + 5F11_VL2c
B18: P1AE5758 (antibody, V domains shown)
VH: B11 VH with A61R
VL: B13 VL
notes: Humanized 5F11 IgG; PGLALA Fc implied by the CAR-J assay; also called 5F11_VH2b + 5F11_VL2b
B19: P1AE5764 (antibody, V domains shown)
VH: B11 VH
VL: B12 VL
notes: Humanized 5F11 IgG; PGLALA Fc implied by the CAR-J assay; also called 5F11_VH2d + 5F11_VL2c
B20: P1AE5738 (antibody, V domains shown)
VH: B11 VH with E1Q, L11V, G16R, A61R, A75S
VL: B12 VL
notes: Humanized 5F11 IgG; PGLALA Fc implied by the CAR-J assay; also called 5F11_VH1a + 5F11_VL2c
B21: P1AE5759 (antibody, V domains shown)
VH: B11 VH with A61R
VL: B12 VL
notes: Humanized 5F11 IgG; PGLALA Fc implied by the CAR-J assay; also called 5F11_VH2b + 5F11_VL2c
B22: P1AE5737 (antibody, V domains shown)
VH: B11 VH with E1Q, L11V, G16R, A61R, A75S
VL: B13 VL
notes: Humanized 5F11 IgG; PGLALA Fc implied by the CAR-J assay; also called 5F11_VH1a + 5F11_VL2b

Target: T1, human GPRC5D (human, UniProt Q9NZD1 1-345)
T1 sequence (Q9NZD1 whole entry): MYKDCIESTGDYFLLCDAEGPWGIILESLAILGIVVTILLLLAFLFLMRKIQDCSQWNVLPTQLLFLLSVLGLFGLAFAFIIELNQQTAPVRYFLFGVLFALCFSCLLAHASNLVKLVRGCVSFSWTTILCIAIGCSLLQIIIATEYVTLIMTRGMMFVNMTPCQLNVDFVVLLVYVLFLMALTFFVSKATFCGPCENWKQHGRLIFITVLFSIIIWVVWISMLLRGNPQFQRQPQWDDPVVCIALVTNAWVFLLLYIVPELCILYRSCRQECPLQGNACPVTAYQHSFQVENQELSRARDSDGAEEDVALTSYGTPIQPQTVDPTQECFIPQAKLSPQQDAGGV
Assay: cell-based or functional assay

| Binder | EC50 in vitro killing assay, AMO-1 [nM] | EC50 in vitro killing assay, EJM [nM] | EC50 in vitro killing assay, L363 [nM] | EC50 in vitro killing assay, MOLP-2 [nM] | EC50 in vitro killing assay, NCI-H929 [nM] | EC50 in vitro killing assay, OPM-2 [nM] | EC50 in vitro killing assay, RPMI [nM] |
| --- | --- | --- | --- | --- | --- | --- | --- |
| B1 | 0.084 | 0.079 | 0.034 | 0.16 | 0.056 | 0.028 | 0.965 |

Target: T1, human GPRC5D
Assay: cell-based or functional assay
Remark: another data set of the same source

| Binder | CAR-J2 EC50 [ng/mL] (PGLALA-CAR-J activation, L363 target cells) |
| --- | --- |
| B2 | 59.4 |
| B3 | 42.4 |
| B4 | 4.6 |
| B5 | 456 |
| B6 | 76.9 |
| B7 | 3.5 |
| B8 | 61.3 |
| B9 | 3.3 |
| B10 | 79.9 |

Target: T1, human GPRC5D
Assay: cell-based or functional assay
Remark: another data set of the same source

| Binder | CAR-J2 EC50 [ng/mL] (PGLALA-CAR-J activation, L363 target cells) |
| --- | --- |
| B11 | 84.2 |
| B12 | 583 |
| B13 | 61.9 |
| B14 | 183 |
| B15 | 30 |
| B16 | 8.89 |
| B17 | 82.6 |
| B18 | 190 |
| B19 | 78.2 |
| B20 | 397 |
| B21 | 15.7 |
| B22 | 2.95 |

Target: T1, human GPRC5D
Assay: cell ELISA, CHO hu GPRC5D (EC/IC50 rel)
Method: Stable transfected CHO clones expressing either human GPRCSD or cynomolgus GPRCSD or murine GPRCSD or human GPRCSA were used to analyze the binding of potential lead candidate antibodies as IgGs. In detail, 10⁴ cells (viability≥98%) were seeded into 384 well-microtiter plates (BD Poly D-Lysin, #356662, volume: 25 μl/well) using fresh culture medium. After overnight incubation at 37° C., 25 μl/well dilutions of antibodies were added (15×1:3 dilutions in 1×PBS, assay conc. starts at 30 μg/ml) to the cells for 2 hours at 4° C. After one washing step using 90 μl/well PBST (10×PBS, Roche, #11666789001+0.1% Tween 20), cells were subsequently fixed by the addition of 50 μl/well 0.05% glutaraldehyde (Sigma Cat. No: G5882 in 1×PBS) for 10 min at room temperature (RT). After three additional washing steps using 90 μl/well PBST, secondary antibodies were added for detection: for human antibodies goat anti-human Ig a chain antibody HRP conjugate (Millipore #AP502P) diluted 1:2000 in blocking buffer (1×PBS (Roche #11666789001)+2% BSA (Bovine Serum Albumin Fraction V, fatty acid free, Roche, #10735086001)+0.05% Tween 20) was used (25 μl/well). […] After incubation for 1 h at RT and three additional washing steps using 90 μl/well PBST, 25 μl/well TMB substrate was added (Roche order no. 11835033001) for 10 min and color development to final ODs was determined by measurement at 370 nm/492 nm.
For the characterization of the humanization variants of the VH and VL domains of the GPRC5D binders the ELISA protocol as described above was used (see Example 7). The data are summarized in the table 10 for the humanization variants of 5E11 and in table 11 for the humanization variants of 5F11.

| Binder | EC50 |
| --- | --- |
| B2 | 0.0191 µg/mL and 0.13 nM |
| B3 | 0.0142 µg/mL and 0.09 nM |
| B4 | 0.0197 µg/mL and 0.13 nM |
| B5 | 0.012 µg/mL and 0.08 nM |
| B6 | 0.0165 µg/mL and 0.11 nM |
| B7 | 0.0101 µg/mL and 0.07 nM |
| B8 | 0.0104 µg/mL and 0.07 nM |
| B9 | 0.0151 µg/mL and 0.1 nM |
| B10 | 0.0139 µg/mL and 0.09 nM |
| B11 | 0.0046 µg/mL and 0.03 nM |
| B12 | 0.0076 µg/mL and 0.05 nM |
| B13 | 0.0061 µg/mL and 0.04 nM |
| B14 | 0.009 µg/mL and 0.06 nM |
| B15 | 0.0104 µg/mL and 0.07 nM |
| B16 | 0.009 µg/mL and 0.06 nM |
| B17 | 0.0074 µg/mL and 0.05 nM |
| B18 | 0.0026 µg/mL and 0.02 nM |
| B19 | 0.0045 µg/mL and 0.03 nM |
| B20 | 0.0041 µg/mL and 0.03 nM |
| B21 | 0.0031 µg/mL and 0.02 nM |
| B22 | 0.0059 µg/mL and 0.04 nM |
